These substances were tested against HLA-A*02:01 (Homo sapiens, UniProt P04439, D140Y/D185E/D98H/E176V/E277Q/G131W/G231S/I119V/I121R/I166T/I218V/L300P/L318F/N151K/N90K/P208A/P217A/Q86G/Q94H/R138H/R169H/T345S) (assay: MHC binding assay (UV-ligand exchange, β2m ELISA, peptide exchange yield)). Details: MHC class I binding score; binding to HLA-A*02:01 ranged by peptide exchange yield (UV-ligand exchange, β2m ELISA).
How it was run: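 Peptide–HLA-A*02:01 complexes were formed by UV-mediated exchange of a UV-cleavable ligand for the test peptide. Exchange yield was measured by capturing complexes on streptavidin, detecting with HRP anti-β2m antibody (1 h, 37°C) and reading TMB absorbance at 450 nm.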
With “342 (HIYDKVMTV; listed as Homo sapiens) [compound 342]” the Peptide exchange was “″+++″ (≧50% = +++)”. “496 (FLVEKQPPQV; listed as Homo sapiens) [compound 496]” was tested, and the Peptide exchange was “″+++″ (≧50% = +++)”. “178 (ALTEIAFVV; listed as Homo sapiens) [compound 178]” was tested, and the Peptide exchange was “″++++″ (≧75% = ++++)”. For “158 (KLFDVDEDGYI; listed as Homo sapiens) [compound 158]”, the Peptide exchange was “″+++″ (≧50% = +++)”. For “187 (RQISIRGIVGV; listed as Homo sapiens) [compound 187]”, the Peptide exchange was “″+++″ (≧50% = +++)”. For “475 (LLLNEEALAQI; listed as Homo sapiens) [compound 475]”, the Peptide exchange was “″+++″ (≧50% = +++)”. In the case of “357 (SMHDLVLQV; listed as Homo sapiens) [compound 357]”, the Peptide exchange is reported as “″+++″ (≧50% = +++)”. “605 (KLYEAVPQL; listed as Homo sapiens) [compound 605]” was tested, and the Peptide exchange was “″+++″ (≧50% = +++)”. “269 (RVLEVGALQAV; listed as Homo sapiens) [compound 269]” was tested, and the Peptide exchange was “″++″ (≧20% = ++)”. In the case of “315 (YLQDVVEQA; listed as Homo sapiens) [compound 315]”, the Peptide exchange is reported as “″+++″ (≧50% = +++)”. In the case of “493 (GLLGEKTQDLIGV; listed as Homo sapiens) [compound 493]”, the Peptide exchange is reported as “″+++″ (≧50% = +++)”. “274 (SLLFSLFEA; listed as Homo sapiens) [compound 274]” was tested, and the Peptide exchange was “″++″ (≧20% = ++)”. “585 (ALWDLAADKQTL; listed as Homo sapiens) [compound 585]” was tested, and the Peptide exchange was “″++++″ (≧75% = ++++)”. For “57 (TLAELQPPVQL; listed as Homo sapiens) [compound 57]”, the Peptide exchange was “″+++″ (≧50% = +++)”. In the case of “466 (VLIANLEKL; listed as Homo sapiens) [compound 466]”, the Peptide exchange is reported as “″++++″ (≧75% = ++++)”. In the case of “164 (ALLPQPKNLTV; listed as Homo sapiens) [compound 164]”, the Peptide exchange is reported as “″+++″ (≧50% = +++)”. In the case of “370 (SLLQDLVSV; listed as Homo sapiens) [compound 370]”, the Peptide exchange is reported as “″+++″ (≧50% = +++)”. “412 (YLDDLNEGVYI; listed as Homo sapiens) [compound 412]” was tested, and the Peptide exchange was “″++″ (≧20% = ++)”. With “346 (LLDSKVPSV; listed as Homo sapiens) [compound 346]” the Peptide exchange was “″+++″ (≧50% = +++)”. With “595 (VLLSIYPRV; listed as Homo sapiens) [compound 595]” the Peptide exchange was “″+++″ (≧50% = +++)”. In the case of “519 (GLLHLTLLL; listed as Homo sapiens) [compound 519]”, the Peptide exchange is reported as “″+++″ (≧50% = +++)”. With “271 (LVYPLELYPA; listed as Homo sapiens) [compound 271]” the Peptide exchange was “″+++″ (≧50% = +++)”. In the case of “491 (GLNDRSDAV; listed as Homo sapiens) [compound 491]”, the Peptide exchange is reported as “″++″ (≧20% = ++)”. With “35 (KINDTIYEV; listed as Homo sapiens) [compound 35]” the Peptide exchange was “″+++″ (≧50% = +++)”. “316 (ILLERLWYV; listed as Homo sapiens) [compound 316]” was tested, and the Peptide exchange was “″+++″ (≧50% = +++)”. In the case of “441 (ALLENPKMEL; listed as Homo sapiens) [compound 441]”, the Peptide exchange is reported as “″+++″ (≧50% = +++)”. For “557 (KLYDDMIRL; listed as Homo sapiens) [compound 557]”, the Peptide exchange was “″+++″ (≧50% = +++)”. In the case of “181 (LLWAGTAFQV; listed as Homo sapiens) [compound 181]”, the Peptide exchange is reported as “″+++″ (≧50% = +++)”. “95 (SVIPQIQKV; listed as Homo sapiens) [compound 95]” was tested, and the Peptide exchange was “″+++″ (≧50% = +++)”. In the case of “146 (SLATAGDGLIEL; listed as Homo sapiens) [compound 146]”, the Peptide exchange is reported as “″++″ (≧20% = ++)”. In the case of “222 (NLIENVQRL; listed as Homo sapiens) [compound 222]”, the Peptide exchange is reported as “″++″ (≧20% = ++)”. “272 (ALGNTVPAV; listed as Homo sapiens) [compound 272]” was tested, and the Peptide exchange was “″+++″ (≧50% = +++)”. “104 (STMEQNFLL; listed as Homo sapiens) [compound 104]” was tested, and the Peptide exchange was “″++++″ (≧75% = ++++)”. “115 (AIAGAGILYGV; listed as Homo sapiens) [compound 115]” was tested, and the Peptide exchange was “″++″ (≧20% = ++)”. In the case of “10 (FLATFPLAAV; listed as Homo sapiens) [compound 10]”, the Peptide exchange is reported as “″++++″ (≧75% = ++++)”. With “218 (SALEELVNV; listed as Homo sapiens) [compound 218]” the Peptide exchange was “″++″ (≧20% = ++)”. In the case of “427 (ALLPLSPYL; listed as Homo sapiens) [compound 427]”, the Peptide exchange is reported as “″+++″ (≧50% = +++)”. For “341 (SQIALNEKLVNL; listed as Homo sapiens) [compound 341]”, the Peptide exchange was “″+++″ (≧50% = +++)”. With “556 (FLTDLEDLTL; listed as Homo sapiens) [compound 556]” the Peptide exchange was “″+++″ (≧50% = +++)”. “78 (SLFSSLEPQIQPV; listed as Homo sapiens) [compound 78]” was tested, and the Peptide exchange was “″+++″ (≧50% = +++)”. For “144 (YIMEPSIFNTL; listed as Homo sapiens) [compound 144]”, the Peptide exchange was “″+++″ (≧50% = +++)”. In the case of “97 (SLINGSFLV; listed as Homo sapiens) [compound 97]”, the Peptide exchange is reported as “″+++″ (≧50% = +++)”. With “487 (LLINSVFHV; listed as Homo sapiens) [compound 487]” the Peptide exchange was “″+++″ (≧50% = +++)”. With “304 (MTLGQIYYL; listed as Homo sapiens) [compound 304]” the Peptide exchange was “″+++″ (≧50% = +++)”. With “609 (ALWKQLLEL; listed as Homo sapiens) [compound 609]” the Peptide exchange was “″+++″ (≧50% = +++)”. With “505 (SLAPGDVVRQV; listed as Homo sapiens) [compound 505]” the Peptide exchange was “″++″ (≧20% = ++)”. With “295 (VLDRESPNV; listed as Homo sapiens) [compound 295]” the Peptide exchange was “″+++″ (≧50% = +++)”. In the case of “244 (SLFGGTEITI; listed as Homo sapiens) [compound 244]”, the Peptide exchange is reported as “″+++″ (≧50% = +++)”. For “508 (ILAQEQLVVGV; listed as Homo sapiens) [compound 508]”, the Peptide exchange was “″+++″ (≧50% = +++)”. For “327 (GLAPFTEGISFV; listed as Homo sapiens) [compound 327]”, the Peptide exchange was “″+++″ (≧50% = +++)”. With “165 (SLLDEIRAV; listed as Homo sapiens) [compound 165]” the Peptide exchange was “″+++″ (≧50% = +++)”. “84 (VTFGEKLLGV; listed as Homo sapiens) [compound 84]” was tested, and the Peptide exchange was “″++″ (≧20% = ++)”. In the case of “276 (ALFTFSPLTV; listed as Homo sapiens) [compound 276]”, the Peptide exchange is reported as “″+++″ (≧50% = +++)”. “91 (IMQDFPAEIFL; listed as Homo sapiens) [compound 91]” was tested, and the Peptide exchange was “″++++″ (≧75% = ++++)”. For “92 (YLIPFTGIVGL; listed as Homo sapiens) [compound 92]”, the Peptide exchange was “″++″ (≧20% = ++)”. In the case of “431 (SLVNVVPKL; listed as Homo sapiens) [compound 431]”, the Peptide exchange is reported as “″++″ (≧20% = ++)”. For “71 (GILARIASV; listed as Homo sapiens) [compound 71]”, the Peptide exchange was “″+++″ (≧50% = +++)”. For “468 (YLRSVGDGETV; listed as Homo sapiens) [compound 468]”, the Peptide exchange was “″+++″ (≧50% = +++)”. “266 (KITDTLIHL; listed as Homo sapiens) [compound 266]” was tested, and the Peptide exchange was “″+++″ (≧50% = +++)”. For “176 (YLMEGSYNKVFL; listed as Homo sapiens) [compound 176]”, the Peptide exchange was “″++″ (≧20% = ++)”. With “580 (LLMENAERV; listed as Homo sapiens) [compound 580]” the Peptide exchange was “″++″ (≧20% = ++)”. “173 (LLDSASAGLYL; listed as Homo sapiens) [compound 173]” was tested, and the Peptide exchange was “″+++″ (≧50% = +++)”. “462 (KLAKQPETV; listed as Homo sapiens) [compound 462]” was tested, and the Peptide exchange was “″+++″ (≧50% = +++)”. For “25 (FLPDEPYIKV; listed as Homo sapiens) [compound 25]”, the Peptide exchange was “″+++″ (≧50% = +++)”. In the case of “240 (ILLEQAFYL; listed as Homo sapiens) [compound 240]”, the Peptide exchange is reported as “″+++″ (≧50% = +++)”. For “546 (VMIAGKVAVV; listed as Homo sapiens) [compound 546]”, the Peptide exchange was “″+++″ (≧50% = +++)”. “576 (ILLNNSGQIKL; listed as Homo sapiens) [compound 576]” was tested, and the Peptide exchange was “″++++″ (≧75% = ++++)”. “285 (QLLHVGVTV; listed as Homo sapiens) [compound 285]” was tested, and the Peptide exchange was “″+++″ (≧50% = +++)”. With “513 (SLWPSPEQL; listed as Homo sapiens) [compound 513]” the Peptide exchange was “″++″ (≧20% = ++)”. For “374 (FLLQQHLISA; listed as Homo sapiens) [compound 374]”, the Peptide exchange was “″++″ (≧20% = ++)”. With “502 (RLLAQVPGL; listed as Homo sapiens) [compound 502]” the Peptide exchange was “″+++″ (≧50% = +++)”. With “34 (ILVEADSLWVV; listed as Homo sapiens) [compound 34]” the Peptide exchange was “″+++″ (≧50% = +++)”. For “86 (NLIGKIENV; listed as Homo sapiens) [compound 86]”, the Peptide exchange was “″+++″ (≧50% = +++)”. “225 (SLLKVLPAL; listed as Homo sapiens) [compound 225]” was tested, and the Peptide exchange was “″+++″ (≧50% = +++)”. “212 (ALWDQDNLSV; listed as Homo sapiens) [compound 212]” was tested, and the Peptide exchange was “″++″ (≧20% = ++)”. “231 (FLSPQQPPLLL; listed as Homo sapiens) [compound 231]” was tested, and the Peptide exchange was “″++″ (≧20% = ++)”. In the case of “45 (SLWQDIPDV; listed as Homo sapiens) [compound 45]”, the Peptide exchange is reported as “″+++″ (≧50% = +++)”.

Source: US20170037111A1, “Novel peptides and combination of peptides for use in immunotherapy against ovarian cancer and other cancers” (immatics biotechnologies GmbH, priority 2015, published 2017)
